The target of one test is Ran^Δ181–216 (human, UniProt P62826 1-180). Briefly: NMR.
In test [1] the target is Ran (full-length, His6-tagged, from pET22b) (human, UniProt P62826 1-216). The test is described as follows: SPR.

B1: Mog1 without a tag (co-expressed with Ran from pRSFDuet-1) (natural protein)
chain: MEPTRDCPLFGGAFSAILPMGAIDVSDLRPVPDNQEVFCHPVTDQSLIVELLELQAHVRGEAAARYHFEDVGGVQGARAVHVESVQPLSLENLALRGRCQEAWVLSGKQQIAKENQQVAKDVTLHQALLRLPQYQTDLLLTFNQPPPDNRSSLGPENLSPAPWSLGDFEQLVTSLTLHDPNIFGPQ
modifications: isotope labels (2H, 15N, ILV methyl 13CH3) as the sample required
With B1, in the test with Ran^Δ181–216, the binding result is on record as “binds”.

B2: Mog1^E50K,E53K (natural protein)
chain: MEPTRDCPLFGGAFSAILPMGAIDVSDLRPVPDNQEVFCHPVTDQSLIVKLLKLQAHVRGEAAARYHFEDVGGVQGARAVHVESVQPLSLENLALRGRCQEAWVLSGKQQIAKENQQVAKDVTLHQALLRLPQYQTDLLLTFNQPPPDNRSSLGPENLSPAPWSLGDFEQLVTSLTLHDPNIFGPQ
Turning to B2, the “fold reduction of binding affinity against wild-type Mog1” value in test [1] was ~100 fold.

Values taken from publication PMC6041754 (Journal of Molecular Cell Biology, 2017).
